This is an account of results in patent US20170281764A1 (JN BIOSCIENCES, published 2017).

Holding throughout (assay): flow cytometry titration on CHO-K1 cells transiently expressing the HA-tagged TIGIT mutant, Alexa488 anti-human IgG detection, four-parameter fit of percent of control, nM is from the concentration axis and paragraph 252
The target in experiment [1] is T1, HA-tagged human TIGIT with mutation N37A, on CHO-K1 cells (human, UniProt Q495A1 22-244).
T1 construct: Built as for m17
T1 sequence: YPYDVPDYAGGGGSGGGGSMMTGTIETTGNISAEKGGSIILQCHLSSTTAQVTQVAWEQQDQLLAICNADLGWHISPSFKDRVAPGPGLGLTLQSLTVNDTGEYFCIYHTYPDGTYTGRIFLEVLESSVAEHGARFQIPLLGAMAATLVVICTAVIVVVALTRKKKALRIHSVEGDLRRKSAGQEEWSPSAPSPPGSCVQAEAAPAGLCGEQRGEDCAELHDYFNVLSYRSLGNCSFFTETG
As to the method: (§1) For flow cytometry analysis of the anti-hTIGIT antibody binding epitope, HA-tagged human TIGIT proteins with or without single amino acid mutation were transiently transfected into CHO-K1 cells. After 24 hr, transfected cells were suspended in HBSS buffer (Thermo Fisher Scientific, Cat#14175095), and incubated with HuTIG1-IgG1.AA antibody at varying concentrations in 50 μL volume. After 1 hr incubation at 4° C., cells were washed and a second incubation with 50 μL Alexa488 conjugated anti-human IgG(H+L) secondary antibody (Thermo Fisher Scientific, Cat#A-11013) was performed to detect cells bound by antibody. Cells were incubated with an anti-HA antibody (Sigma, Cat# H7411) as a positive control, and non-transfected CHO-K1 cells were used as a negative control. The cells were analyzed on an Attune NxT Cytometer (Thermo Fisher Scientific) and the data were processed using FlowJo software. For each mutant, the saturating antibody binding MFI (mean fluorescence intensity) were normalized to 100% POC (percent of control), and no primary antibody binding control MFI were normalized to 0% POC. Data were then fit to a four parameter non-linear sigmoidal curve using GraphPad Prism 7 curve fitting using following formula: Y=Bottom+(Top−Bottom)/(1+10^{((Log EC}^₅₀^{-X)*HillSlope)}).
(§2) All of these residues co-locate to one discrete region on the front ([…] structure of the TIGIT IgV extracellular domain (FIG. 28).

In another experiment the target is T2, E39A.
T2 construct: also called HA-tagged human TIGIT with mutation E39A, on CHO-K1 cells
T2 single chain: T1 sequence with A56N, E58A
As to the method: as §1, §2

The target of the next experiment is T3, T34A.
T3 construct: also called HA-tagged human TIGIT with mutation T34A, on CHO-K1 cells
T3 single chain: T1 sequence with T53A, A56N
As for the experimental part: as §1, §2

For a further experiment, the target named is T4, H55A.
T4 construct: also called HA-tagged human TIGIT with mutation H55A, on CHO-K1 cells
T4 single chain: T1 sequence with A56N, H74A
As for the experimental part: as §1, §2

The next experiment addresses T5, L44A.
T5 construct: also called HA-tagged human TIGIT with mutation L44A, on CHO-K1 cells
T5 single chain: T1 sequence with A56N, L63A
As for the experimental part:
as §1, §2

Experiment [2] has as its target T6, HA-tagged human TIGIT with mutation H90A, on CHO-K1 cells (human, UniProt Q495A1 22-244).
T6 construct: Built as for m17
T6 sequence: T1 sequence with A56N, H109A
As to the method: as §1, §2

Changes are numbered by the printed parent chain. Numbers in names are those of the source.

B1: HuTIG1-IgG1.AA (humanized IgG1/kappa form of TIG1, L234A/L235A) (antibody)
heavy: not shown
light: DIQMTQSPSSLSASVGDRVTITCRASKSISKYLAWYQQKPGKAPKLLIYSGSTLQSGVPSRFSGSGSGTDFTLTISSLQPEDFATYYCQQHNEYPWTFGGGTKVEIKRTVAAPSVFIFPPSDEQLKSGTASVVCLLNNFYPREAKVQWKVDNALQSGNSQESVTEQDSKDSTYSLSSTLTLSKADYEKHKVYACEVTHQGLSSPVTKSFNRGEC
notes: Mature full chains; also called humanized TIG1
The term EC50 denotes the concentration needed to bring the measured effect to its halfway point. Higher therefore signals weaker potency. Consider B1, for which the EC50 in experiment [1] is 126 nM; with E39A, 1.58 nM; with T34A, 0.577 nM; with H55A it was 1.19 nM; in the experiment with L44A, 1.23 nM; in experiment [2], 104 nM.
